Measurements published in patent US9074002B2, “PTP1B inhibitors” (Cold Spring Harbor Laboratory, priority 2009, dated 2015).

T1: PTP1B-OX (Homo sapiens, UniProt P18031)
T1 construct: made in house; host or cells: E. coli BL21 (pET19b)
T1 sequence (P18031 3-277): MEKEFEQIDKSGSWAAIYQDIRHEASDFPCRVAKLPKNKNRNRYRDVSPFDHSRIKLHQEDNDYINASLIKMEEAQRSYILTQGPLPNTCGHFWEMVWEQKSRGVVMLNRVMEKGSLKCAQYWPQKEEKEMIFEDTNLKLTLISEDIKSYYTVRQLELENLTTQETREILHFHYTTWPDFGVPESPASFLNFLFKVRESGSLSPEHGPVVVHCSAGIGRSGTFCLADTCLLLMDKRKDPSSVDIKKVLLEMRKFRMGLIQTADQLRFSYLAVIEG

B1: scFv45: conformation-sensor scFv binding PTP1B-OX, SEQ ID NO: 26 and 78; expressed as intrabody (protein)
scFv: MKKTAIAIAVALAGFATVAQAALTQPSSVSANPGGTVKITCSGSSSAYGYGWYQQKSPGSAPVTVIYNNNKRPSNIPSRFSGSKSGSTGTLTITGVQAEDEAVYFCGSEDSSTDAIFGAGTTLTVLGQSSRSSTVTLDESGGGLQAPGGALSLVCKASGFTFSSYDMGWIRQAPGKGLEYVAGITDNGRYASYGSAVDGRATISRDNGQSSVRLQLNNLRAEDTGTYYCARDDGSGWTGNSIDAWGHGTEVIVSSTSGQAGQHHHHHHGAYPYDVPDYAS
B2: scFv57: scFv binding PTP1B-OX, SEQ ID NO: 27 and 90 (protein)
scFv: MKKTAIAIAVALAGFATVAQAALTQPSSVSANPGAFNKITCSGSSSAYGYGWNQQKSPGSAPVTVIYNNNKRPSNIPSRFSGSKSGSTGTLTITGDQDEDEDFYFCGSEYSSTDAIFGAGTTLTVLGQSSRSSTVTLDESGGGLQAPGGALSLVCKASGFTFSSYDMGWIPQAPGKGLEYVAGITDNGIYASYGSAVDGRATISRDNRQSSVKLQLNNLKADDTGTYYCARDDGSGWTGNSIDAWGHGTEVIVSSTSGQAGQHHHHHHGAYPYDVPDYAS

Key:
PTP1B-OX = molecular target: T1, PTP1B-OX; assay: Inhibition of reactivation of reversibly oxidized PTP1B by reducing agent (RCML phosphatase assay); format: biochemical; conditions: PTP1B oxidized with H2O2, buffer exchange, TCEP added; FIG. 2
Method: Applicant's hypothesis was that scFvs that are able to bind to and stabilize the oxidized conformation of PTP1B in solution would inhibit reactivation by reducing agent, but have no direct inhibitory effect on phosphatase activity in assays in vitro. Activity was measured using ^32P-labeled pTyr-Reduced Carboxamidomethylated and Maleylated Lysozyme as substrate. Applicant established conditions in which wild type PTP1B could be reversibly oxidized in vitro. PTP1B was inactivated following addition of H2O2. […] Applicant validated this approach further, by testing the effects of expressing one of the scFvs (scFv45) as a single chain antibody fragment “intrabody” to PTP1B, using 293T cells as the expression system. This intrabody was expressed transiently and then tested for effects on insulin signaling, focusing initially on the tyrosine phosphorylation status of the beta-subunit of the insulin receptor and insulin receptor substrate (IRS-1).
Reduced carboxamidomethylated and maleylated lysozyme (RCML) was labeled with ^32P using recombinant GST-FER kinase to stoichiometries up to 0.8 (mol ^32P incorporated/mol of protein). This ^32P-Labeled phospho-tyrosyl RCML was used as the substrate in the in-solution phosphatase assay for screening the conformation sensor scFvs. Recombinant PTP1B was reversibly oxidized and transiently inactivated with H2O2 (5× molar excess of the protein). […] Purified bacterially expressed scFvs (100× molar excess of PTP1B) were incubated with PTP after H2O2 treatment and its removal and the effect of individual scFv on stabilizing the reversibly oxidized conformation was assessed by the phosphatase assay under reducing condition.
In a different experiment, conditions were established in which wild type PTP1B could be reversibly oxidized in vitro. […] Addition of the reducing agent alone had no substantial effect on PTP1B activity (FIGS. 1 and 2, “PTP1B”).

[1] = tested on: tyrosine phosphorylation of insulin receptor β (IRβ) and insulin receptor substrate-1 (IRS-1) in 293T cells; assay: Insulin signaling in 293T cells expressing intrabody: tyrosine phosphorylation of IRβ and IRS-1; format: cell-based
Text: In order to validate this approach further, Applicant tested the effects of expressing one of these (scFv45) as a single chain antibody fragment “intrabody” to PTP1B, using 293T cells as a convenient expression system. This intrabody was expressed transiently and then tested for effects on insulin signaling, focusing initially on the tyrosine phosphorylation status of the β-subunit of the insulin receptor and IRS-1 (FIG. 2). Initial indications are that for both substrates expression of the intrabody had no impact on the basal level of tyrosyl phosphorylation, but it enhanced and extended the time course of insulin-induced phosphorylation, consistent with our proposed mechanism of action.
Intrabody scFv45 was transfected in 293T cells, serum starved and insulin stimulated to investigate the physiological relevance of this intrabody expression in mammalian cells in the context of PTP1B mediated regulation of insulin signaling (or insulin signaling mediated redox regulation of PTP1B activity). Insulin stimulated 293T cells with or without the intrabody were harvested in RIPA buffer (25 mM HEPES, pH 7.5, 150 mM NaCl, 0.25% Deoxychloate, 10% Glycerol, 25 mM NaF, 10 mM MgCl2, 1 mM EDTA, 1% TritonX-100, 0.5 mM PMSF, 10 mM Benzamidine, protease inhibitor cocktail, 1 mM sodium vanadate) and the cell lysates were examined for total tyrosine phosphosphorylation pattern using phospho-tyrosine specific antibodies (FIGS. 3 and 4).

[2] = tested on: endogenous PTP1B in Cos1 cells; assay: Colocalization of intrabody45 and PTP1B in Cos1 cells by immunofluorescence; format: cell-based; conditions: FIG. 14
Method: In order to verify the interaction between PTP1B-OX and scFv45 in mammalian cells, Applicant determined whether PTP and scFv45 colocalized after insulin stimulation, using immunofluorescence. Cos1 cells were grown on cover slips and transfected with scFv45 using Fugene6 as the transfection reagent according to manufacturer's instructions. The cells were serum starved 24 hours post transfection, for 16 hours at 37° C. and then stimulated with 25 nM insulin (in growth medium without serum) or left untreated. Following insulin treatment the cells were washed 2× with PBS and fixed with 5% formalin (in PBS) for 15 minutes at room temperature. The cells were washed with PBS three times at room temperature. The fixed cells were permeabilized with 0.5% Triton-X100 (in PBS) for 5 minutes at room temperature. Cells were rinsed with Wash Buffer [PBS, pH 7.4 with 0.1% BSA, 0.2% TritonX-100, 0.05% Tween-20 and 0.05% sodium azide] at room temperature. […] To quantify colocalization of PTP1B and intrabody45 from the merged images, 15 individual images were analyzed by Zeiss (LSM 710) Colocalization Viewer Software. The degree of colocalization of PTP1B and intrabody45 in each cell was expressed as colocalization coefficients that measure relative number of colocalizing pixels for the respective fluorophores for PTP1B and intrabody45, as compared to the total number of pixels. […]

Molecule	inhibition of reactivation of PTP1B-OX by reducing agent (restoration of PTP1B activity after reversible oxidation) (PTP1B-OX)	basal level of tyrosyl phosphorylation of insulin receptor β-subunit and IRS-1 ([1]; 293T cells expressing intrabody, no insulin)	tyrosine phosphorylation of insulin receptor β (IRβ) ([1]; 293T cells overexpressing intrabody, insulin stimulated, FIG. 3)	tyrosine phosphorylation of insulin receptor substrate-1 (IRS-1) ([1]; 293T cells overexpressing intrabody, insulin stimulated, FIG. 4)	colocalization between PTP1B and intrabody ([2]; Cos1 cells without insulin stimulation)	colocalization between PTP1B and intrabody ([2]; Cos1 cells, stimulated with 25 nM insulin)
B1	substantial inhibition of the restoration of PTP1B activity	no impact	increased and prolonged tyrosine phosphorylation	increased and prolonged tyrosine phosphorylation	not significant	Strong colocalization
B2	substantial inhibition of the restoration of PTP1B activity					
